For assay [1], the target named is T1, ECD-PRL-R, soluble extracellular domain of the prolactin receptor, Ser-PRLR(1-210) (human, UniProt P16471 25-234).
T1 construct: range 1-210
T1 sequence: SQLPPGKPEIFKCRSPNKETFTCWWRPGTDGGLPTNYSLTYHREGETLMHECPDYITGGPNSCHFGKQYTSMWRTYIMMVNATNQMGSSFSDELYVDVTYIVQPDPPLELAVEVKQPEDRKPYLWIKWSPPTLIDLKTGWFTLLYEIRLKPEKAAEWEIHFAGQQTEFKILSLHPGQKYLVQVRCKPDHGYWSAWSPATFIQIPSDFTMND
As to the kind of experiment: HX-MS, 6 uM vPRL with or without 12 uM ECD-PRL-R. The procedure:
Amide hydrogen/deuterium exchange (HX) was initiated by a 10-fold dilution of vPRL in the presence or absence of ECD-PRL-R into a deuterated buffer (i.e. 20 mM Tris, 150 mM NaCl, 99% D₂O, pH 7.4 (uncorrected value)). Non-deuterated controls were prepared by dilution into an identical protiated buffer. All HX reactions were carried out at 30° C. and contained 6 μM vPRL variant in the absence or presence of 12 μM ECD-PRL-R. At appropriate time intervals, aliquots of the HX reaction were quenched by addition of an equal volume of ice-cold quenching buffer (1.25 M Tris(2-carboxyethyl)phosphine hydrochloride, adjusted to pH 2.0 using NaOH) resulting in a final pH of 2.5 (uncorrected value). Quenched samples were immediately frozen in liquid N₂ and stored at −80° C.
The samples were run on a cooled high pressure liquid chromatography-mass spectrometry system for rapid desalting and mass analysis as described (Rand et al. J. Biol. Chem. 281, 23018 (2006)).

Assay [2] addresses T2, Biotinylated prolactin receptor BirATag-Ser-PRLR (1-210) (human, UniProt P16471 25-234, biotinylated (BirA tag, biotin added during expression in E. coli)).
T2 construct: range 1-210; also called BirA-Ser-PRLR (1-210); not shown: BirA tag (biotin acceptor tag)
T2 sequence: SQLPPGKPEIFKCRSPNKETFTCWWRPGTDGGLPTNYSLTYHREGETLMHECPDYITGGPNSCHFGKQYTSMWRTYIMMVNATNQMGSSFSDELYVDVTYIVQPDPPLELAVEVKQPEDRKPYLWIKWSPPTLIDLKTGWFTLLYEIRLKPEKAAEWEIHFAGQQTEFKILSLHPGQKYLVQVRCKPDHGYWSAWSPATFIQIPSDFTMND
The assay can be described thus: SPR (Biacore); biotinylated BirATag-Ser-PRLR (1-210) amine-coupled to CM5 chip, variant injected at 3.13-50 nM; STDEV 0.56. Here is the method:
(§1) Biotinylated prolactin receptor BirATag-Ser-PRLR (1-210) was diluted to 20 μg/ml in 10 mM sodium acetate pH 4.0 (Biacore BR-1003-49) and immobilized on a CM5 chip (Biacore BR-1006-68) with the immobilization reagents 1-ethyl-3-(3-dimethylaminopropyl) carbodiimide hydrochloride (EDC), N-hydroxysuccinimide (NHS) and 1.0 M ethanolamine-HCl pH 8.5 (Biacore BR1000-50). The immobilization level was 1500 RU. The PRL variants prepared as described in Example 5 were diluted to a series of concentrations as following: 3.13/6.25/12.5/25/50 nM and run through the PRLR immobilized chip using HBS-EP (10 mM HEPES pH 7.4; 150 mM NaCl; 3 mM EDTA; 0.005% v/v Tween-20) as the running buffer under the following conditions: […]

For assay [3], the target named is T2, Biotinylated prolactin receptor …. As to the kind of experiment: SPR (Biacore); biotinylated BirATag-Ser-PRLR (1-210) amine-coupled to CM5 chip, variant injected at 3.13-50 nM; STDEV 0.51. The procedure:
as §1

Assay [4] has the same target. As to the kind of experiment: SPR (Biacore); biotinylated BirATag-Ser-PRLR (1-210) amine-coupled to CM5 chip, variant injected at 3.13-50 nM; STDEV 0.028. Here is the method: as §1
On the technique in general: SPR reads the build-up and loss of mass on a sensor chip optically.

Assay [5] has the same target. As to the kind of experiment: SPR (Biacore); biotinylated BirATag-Ser-PRLR (1-210) amine-coupled to CM5 chip, variant injected at 3.13-50 nM; STDEV 0.22. The procedure: as §1

One may read the Kd as the equilibrium constant for the complex coming apart. The low end stands for a tighter complex, the high end for a looser complex.

B1: vPRL: variant of PRL with amino acid residues 1-11 deleted and the mutations Q12S and G129R (ligand)
chain: SVTLRDLFDRAVVLSHYIHNLSSEMFSEFDKRYTHGRGFITKAINSCHTSSLATPEDKEQAQQMNQKDFLSLIVSILRSWNEPLYHLVTEVRGMQEAPEAILSKAVEIEEQTKRLLERMELIVSQVHPETKENEIYPVWSGLPSLQMADEESRLSAYYNLLHCLRRDSHKIDNYLKLLKCRIIHNNNC
With B1, the binding result in assay [1] is “binds”.

B2: Ser-PRL D68N, G129R (ligand)
chain: SLPICPGGAARCQVTLRDLFDRAVVLSHYIHNLSSEMFSEFDKRYTHGRGFITKAINSCHTSSLATPENKEQAQQMNQKDFLSLIVSILRSWNEPLYHLVTEVRGMQEAPEAILSKAVEIEEQTKRLLERMELIVSQVHPETKENEIYPVWSGLPSLQMADEESRLSAYYNLLHCLRRDSHKIDNYLKLLKCRIIHNNNC
For the molecule B2, in assay [2], binding was characterised by a dissociation constant (Kd) of 4.9 nM.

B3: Ser-PRL S33A, Q73L, M75T, N76S, F80L, G129R, K190R (ligand)
chain: SLPICPGGAARCQVTLRDLFDRAVVLSHYIHNLASEMFSEFDKRYTHGRGFITKAINSCHTSSLATPEDKEQALQTSQKDLLSLIVSILRSWNEPLYHLVTEVRGMQEAPEAILSKAVEIEEQTKRLLERMELIVSQVHPETKENEIYPVWSGLPSLQMADEESRLSAYYNLLHCLRRDSHKIDNYLKLLRCRIIHNNNC
In assay [3], B3 showed a Kd of 3.3 nM.

B4: Ser-PRL S61A, G129R, K190R (ligand)
chain: SLPICPGGAARCQVTLRDLFDRAVVLSHYIHNLSSEMFSEFDKRYTHGRGFITKAINSCHTASLATPEDKEQAQQMNQKDFLSLIVSILRSWNEPLYHLVTEVRGMQEAPEAILSKAVEIEEQTKRLLERMELIVSQVHPETKENEIYPVWSGLPSLQMADEESRLSAYYNLLHCLRRDSHKIDNYLKLLRCRIIHNNNC
Molecule B4 gave a Kd in assay [4] of 2.4 nM.

B5: Ser-PRL D68N, G129R, K190R (ligand)
chain: SLPICPGGAARCQVTLRDLFDRAVVLSHYIHNLSSEMFSEFDKRYTHGRGFITKAINSCHTSSLATPENKEQAQQMNQKDFLSLIVSILRSWNEPLYHLVTEVRGMQEAPEAILSKAVEIEEQTKRLLERMELIVSQVHPETKENEIYPVWSGLPSLQMADEESRLSAYYNLLHCLRRDSHKIDNYLKLLRCRIIHNNNC
Turning to B5, the Kd in assay [5] came out at 2.8 nM. In other words, the single-digit nanomolar range.

(Values after patent US20100249029A1 (Novo Nordisk, published 2010).)
